From US12630600B2 (MEDIMMUNE LIMITED, priority 2022, dated 2026)
Starred links: 1 amine or outer side, 2 acyl side, 3 side chain; linkers in the order of their positions; H or OH if unused. Non-standard residues stand in square brackets, D forms with d. Groups on a side chain read outwards from the residue. No end group written: not given here. *: point of attachment. β‑dimethylGln = β-dimethylglutamine, CC(C)(CC(N)=O)[C@H](N[*:1])C(=O)[*:2]; C20 diacid = O=C(O)CCCCCCCCCCCCCCCCCCC(=O)*; C18 diacid = O=C(O)CCCCCCCCCCCCCCCCC(=O)*; γGlu = O=C(O)[C@H](CCC(=O)[*:2])N[*:1]; αMeF = C[C@](N)(Cc1ccccc1)C(=O)O; NMeQ = CN[C@@H](CCC(N)=O)C(=O)O; AEEA = NCCOCCOCC(=O)O; Aib = CC(C)(N)C(=O)O

Experiments:
human GLP-1 receptor = human GLP-1 receptor (human, UniProt P43220); assay: cell-based or functional assay
human glucagon receptor = human glucagon receptor (human, UniProt P47871); assay: cell-based or functional assay

Binder	hGLP-1R EC50 (pM) (human GLP-1 receptor)	hGluc-R EC50 (pM) (human glucagon receptor)
H[Aib]HGS[αMeF]TSDVSR[αMeF]LDSRAAK([AEEA-AEEA-γGlu-γGlu-C20 diacid])D[αMeF]VQ[Aib]IANT-NH2 (N-terminus assumed; SMILES CC[C@H](C)[C@H](NC(=O)C(C)(C)NC(=O)[C@H](CCC(N)=O)NC(=O)[C@@H](NC(=O)[C@](C)(Cc1ccccc1)NC(=O)[C@H](CC(=O)O)NC(=O)[C@H](CCCCNC(=O)COCCOCCNC(=O)COCCOCCNC(=O)CC[C@H](NC(=O)CC[C@H](NC(=O)CCCCCCCCCCCCCCCCCCC(=O)O)C(=O)O)C(=O)O)NC(=O)[C@H](C)NC(=O)[C@H](C)NC(=O)[C@H](CCCNC(=N)N)NC(=O)[C@H](CO)NC(=O)[C@H](CC(=O)O)NC(=O)[C@H](CC(C)C)NC(=O)[C@](C)(Cc1ccccc1)NC(=O)[C@H](CCCNC(=N)N)NC(=O)[C@H](CO)NC(=O)[C@@H](NC(=O)[C@H](CC(=O)O)NC(=O)[C@H](CO)NC(=O)[C@@H](NC(=O)[C@](C)(Cc1ccccc1)NC(=O)[C@H](CO)NC(=O)CNC(=O)[C@H](Cc1c[nH]cn1)NC(=O)C(C)(C)NC(=O)[C@@H](N)Cc1c[nH]cn1)[C@@H](C)O)C(C)C)C(C)C)C(=O)N[C@@H](C)C(=O)N[C@@H](CC(N)=O)C(=O)N[C@H](C(N)=O)[C@@H](C)O) [Peptide 298]	75.5	573
H[Aib]HGS[αMeF]TSDVSK[αMeF]LDSRAAK([AEEA-AEEA-γGlu-C18 diacid])D[αMeF]VQ[Aib]IAET-NH2 (N-terminus assumed; SMILES CC[C@H](C)[C@H](NC(=O)C(C)(C)NC(=O)[C@H](CCC(N)=O)NC(=O)[C@@H](NC(=O)[C@](C)(Cc1ccccc1)NC(=O)[C@H](CC(=O)O)NC(=O)[C@H](CCCCNC(=O)COCCOCCNC(=O)COCCOCCNC(=O)CC[C@H](NC(=O)CCCCCCCCCCCCCCCCC(=O)O)C(=O)O)NC(=O)[C@H](C)NC(=O)[C@H](C)NC(=O)[C@H](CCCNC(=N)N)NC(=O)[C@H](CO)NC(=O)[C@H](CC(=O)O)NC(=O)[C@H](CC(C)C)NC(=O)[C@](C)(Cc1ccccc1)NC(=O)[C@H](CCCCN)NC(=O)[C@H](CO)NC(=O)[C@@H](NC(=O)[C@H](CC(=O)O)NC(=O)[C@H](CO)NC(=O)[C@@H](NC(=O)[C@](C)(Cc1ccccc1)NC(=O)[C@H](CO)NC(=O)CNC(=O)[C@H](Cc1c[nH]cn1)NC(=O)C(C)(C)NC(=O)[C@@H](N)Cc1c[nH]cn1)[C@@H](C)O)C(C)C)C(C)C)C(=O)N[C@@H](C)C(=O)N[C@@H](CCC(=O)O)C(=O)N[C@H](C(N)=O)[C@@H](C)O) [Peptide 300]	19.7	18.4
H[Aib]HGS[αMeF]TSDVSK[αMeF]LDSRAAK([AEEA-AEEA-γGlu-γGlu-C20 diacid])D[αMeF]IA[Aib]IAET-NH2 [Peptide 302]	151	271
H[Aib]HGS[αMeF]TSDVSK[αMeF]LDSRAAK([AEEA-AEEA-γGlu-γGlu-C20 diacid])D[αMeF]VQ[Aib]IANT-OH [Peptide 304]	239	687
H[Aib]HGS[αMeF]TSDVSK[αMeF]LDSRAAK([AEEA-AEEA-γGlu-γGlu-C20 diacid])D[αMeF]VQ[Aib]IANT-NH2 (N-terminus assumed; SMILES CC[C@H](C)[C@H](NC(=O)C(C)(C)NC(=O)[C@H](CCC(N)=O)NC(=O)[C@@H](NC(=O)[C@](C)(Cc1ccccc1)NC(=O)[C@H](CC(=O)O)NC(=O)[C@H](CCCCNC(=O)COCCOCCNC(=O)COCCOCCNC(=O)CC[C@H](NC(=O)CC[C@H](NC(=O)CCCCCCCCCCCCCCCCCCC(=O)O)C(=O)O)C(=O)O)NC(=O)[C@H](C)NC(=O)[C@H](C)NC(=O)[C@H](CCCNC(=N)N)NC(=O)[C@H](CO)NC(=O)[C@H](CC(=O)O)NC(=O)[C@H](CC(C)C)NC(=O)[C@](C)(Cc1ccccc1)NC(=O)[C@H](CCCCN)NC(=O)[C@H](CO)NC(=O)[C@@H](NC(=O)[C@H](CC(=O)O)NC(=O)[C@H](CO)NC(=O)[C@@H](NC(=O)[C@](C)(Cc1ccccc1)NC(=O)[C@H](CO)NC(=O)CNC(=O)[C@H](Cc1c[nH]cn1)NC(=O)C(C)(C)NC(=O)[C@@H](N)Cc1c[nH]cn1)[C@@H](C)O)C(C)C)C(C)C)C(=O)N[C@@H](C)C(=O)N[C@@H](CC(N)=O)C(=O)N[C@H](C(N)=O)[C@@H](C)O) [Peptide 305]	211	155
H[Aib]QGTFTSDVSK[αMeF]LDSRAAK([AEEA-AEEA-γGlu-C18 diacid])DFVQ[Aib]LVAT-NH2 (not fully specified) [Peptide 315]	18.1	5850
H[Aib]QGTFTSDVSK[αMeF]LDSRAAK([AEEA-AEEA-γGlu-C18 diacid])DFVQWIANT-NH2 (not fully specified) [Peptide 318]	55.2	12000
H[Aib]QGT[αMeF]TSDVSK[αMeF]LDSRAAK([AEEA-AEEA-γGlu-C18 diacid])D[αMeF]VQ[Aib]IANT-NH2 (not fully specified) [Peptide 321]	22.6	4400
H[Aib]QGS[αMeF]TSDVSK[αMeF]LDSRAAKD[αMeF]VQ[Aib]IANT-NH2 (not fully specified (residue 20)) [Peptide 322]	68.3	> 24700
HS[β‑dimethylGln]GS[αMeF]TSDVSK[αMeF]LDSRAAK([AEEA-AEEA-γGlu-C18 diacid])D[αMeF]VQ[Aib]IANT-NH2 (N-terminus assumed; SMILES CC[C@H](C)[C@H](NC(=O)C(C)(C)NC(=O)[C@H](CCC(N)=O)NC(=O)[C@@H](NC(=O)[C@](C)(Cc1ccccc1)NC(=O)[C@H](CC(=O)O)NC(=O)[C@H](CCCCNC(=O)COCCOCCNC(=O)COCCOCCNC(=O)CC[C@H](NC(=O)CCCCCCCCCCCCCCCCC(=O)O)C(=O)O)NC(=O)[C@H](C)NC(=O)[C@H](C)NC(=O)[C@H](CCCNC(=N)N)NC(=O)[C@H](CO)NC(=O)[C@H](CC(=O)O)NC(=O)[C@H](CC(C)C)NC(=O)[C@](C)(Cc1ccccc1)NC(=O)[C@H](CCCCN)NC(=O)[C@H](CO)NC(=O)[C@@H](NC(=O)[C@H](CC(=O)O)NC(=O)[C@H](CO)NC(=O)[C@@H](NC(=O)[C@](C)(Cc1ccccc1)NC(=O)[C@H](CO)NC(=O)CNC(=O)[C@@H](NC(=O)[C@H](CO)NC(=O)[C@@H](N)Cc1c[nH]cn1)C(C)(C)CC(N)=O)[C@@H](C)O)C(C)C)C(C)C)C(=O)N[C@@H](C)C(=O)N[C@@H](CC(N)=O)C(=O)N[C@H](C(N)=O)[C@@H](C)O) [Peptide 324]	1330	1930
HS[NMeQ]GS[αMeF]TSDVSK[αMeF]LDSRAAK([AEEA-AEEA-γGlu-C18 diacid])D[αMeF]VQ[Aib]IANT-NH2 (N-terminus assumed; SMILES CC[C@H](C)[C@H](NC(=O)C(C)(C)NC(=O)[C@H](CCC(N)=O)NC(=O)[C@@H](NC(=O)[C@](C)(Cc1ccccc1)NC(=O)[C@H](CC(=O)O)NC(=O)[C@H](CCCCNC(=O)COCCOCCNC(=O)COCCOCCNC(=O)CC[C@H](NC(=O)CCCCCCCCCCCCCCCCC(=O)O)C(=O)O)NC(=O)[C@H](C)NC(=O)[C@H](C)NC(=O)[C@H](CCCNC(=N)N)NC(=O)[C@H](CO)NC(=O)[C@H](CC(=O)O)NC(=O)[C@H](CC(C)C)NC(=O)[C@](C)(Cc1ccccc1)NC(=O)[C@H](CCCCN)NC(=O)[C@H](CO)NC(=O)[C@@H](NC(=O)[C@H](CC(=O)O)NC(=O)[C@H](CO)NC(=O)[C@@H](NC(=O)[C@](C)(Cc1ccccc1)NC(=O)[C@H](CO)NC(=O)CNC(=O)[C@H](CCC(N)=O)N(C)C(=O)[C@H](CO)NC(=O)[C@@H](N)Cc1c[nH]cn1)[C@@H](C)O)C(C)C)C(C)C)C(=O)N[C@@H](C)C(=O)N[C@@H](CC(N)=O)C(=O)N[C@H](C(N)=O)[C@@H](C)O) [Peptide 325]	929	> 25500
H[dS]QGS[αMeF]TSDVSK[αMeF]LDSRAAK([AEEA-AEEA-γGlu-C18 diacid])D[αMeF]VQ[Aib]IANT [Peptide 331]	62.6	66.6
H[Aib]QGTFTSDYSK[αMeF]LD[αMeF]RRAK([γGlu-C18 diacid])DFVQWLL[Aib]T-OH (N-terminus assumed; SMILES CC(C)C[C@H](NC(=O)[C@H](Cc1c[nH]c2ccccc12)NC(=O)[C@H](CCC(N)=O)NC(=O)[C@@H](NC(=O)[C@H](Cc1ccccc1)NC(=O)[C@H](CC(=O)O)NC(=O)[C@H](CCCCNC(=O)CC[C@H](NC(=O)CCCCCCCCCCCCCCCCC(=O)O)C(=O)O)NC(=O)[C@H](C)NC(=O)[C@H](CCCNC(=N)N)NC(=O)[C@H](CCCNC(=N)N)NC(=O)[C@](C)(Cc1ccccc1)NC(=O)[C@H](CC(=O)O)NC(=O)[C@H](CC(C)C)NC(=O)[C@](C)(Cc1ccccc1)NC(=O)[C@H](CCCCN)NC(=O)[C@H](CO)NC(=O)[C@H](Cc1ccc(O)cc1)NC(=O)[C@H](CC(=O)O)NC(=O)[C@H](CO)NC(=O)[C@@H](NC(=O)[C@H](Cc1ccccc1)NC(=O)[C@@H](NC(=O)CNC(=O)[C@H](CCC(N)=O)NC(=O)C(C)(C)NC(=O)[C@@H](N)Cc1c[nH]cn1)[C@@H](C)O)[C@@H](C)O)C(C)C)C(=O)N[C@@H](CC(C)C)C(=O)NC(C)(C)C(=O)N[C@H](C(=O)O)[C@@H](C)O) [Peptide 339]	312	70.3
